Measurements as given in patent US20150290289, “METHOD OF PROMOTING WOUND HEALING” (Agency for Science, Technology and Research, published 2015).
Residue numbers refer to the chain shown, from its start.

B1: pre-miR-198 wild type (ssRNA)
RNA: UCAUUGGUCCAGAGGGGAGAUAGGUUCCUGUGAUUUUUCCUUCUUCUCUAUAGAAUAAAUGA
B2: pre-miR-198 Mut-1 (ssRNA)
RNA: B1 RNA with G30C, G32C
modifications: [NONE]

Experiments:
KSRP (KHSRP) [1] = molecular target: T1, KSRP (KHSRP) (UniProt Q92945 Q92945:2-711); assay: EMSA; 0.5 uM KSRP, 5 mM MgCl2, 50 mM KCl, yeast tRNA, pH 7.4, room temperature; settings: tags: recombinant, Origene; label: 32P-UTP; hairpin
T1 sequence: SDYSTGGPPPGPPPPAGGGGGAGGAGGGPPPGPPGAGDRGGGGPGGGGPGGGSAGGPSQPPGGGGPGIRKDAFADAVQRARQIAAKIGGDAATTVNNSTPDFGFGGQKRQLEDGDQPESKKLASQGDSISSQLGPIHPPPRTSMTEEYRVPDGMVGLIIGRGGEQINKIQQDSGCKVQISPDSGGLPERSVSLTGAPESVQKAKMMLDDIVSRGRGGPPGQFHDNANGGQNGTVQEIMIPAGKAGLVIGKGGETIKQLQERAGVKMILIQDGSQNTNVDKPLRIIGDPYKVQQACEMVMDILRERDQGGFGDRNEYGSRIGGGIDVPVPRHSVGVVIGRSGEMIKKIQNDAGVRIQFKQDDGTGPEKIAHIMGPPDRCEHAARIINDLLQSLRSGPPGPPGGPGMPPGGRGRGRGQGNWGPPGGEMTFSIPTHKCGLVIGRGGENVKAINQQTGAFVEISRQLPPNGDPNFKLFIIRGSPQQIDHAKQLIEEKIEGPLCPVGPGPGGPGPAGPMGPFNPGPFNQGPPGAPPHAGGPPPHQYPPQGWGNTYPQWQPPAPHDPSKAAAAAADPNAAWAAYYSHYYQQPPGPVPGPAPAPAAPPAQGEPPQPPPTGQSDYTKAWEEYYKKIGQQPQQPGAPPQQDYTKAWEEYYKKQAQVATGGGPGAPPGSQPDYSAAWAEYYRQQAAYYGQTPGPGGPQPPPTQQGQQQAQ
Method: (§1) The pre-miR-198 substrate for gel retardation assay was prepared as described above. Pre-miR-198 transcripts with mutated terminal loop and stem sequences (FIG. 11B) were generated by mutating the parental plasmid (pBSKS) constructs with Quickchange site directed mutagenesis Kit (Stratagene). Recombinant KSRP protein (0.5 μM) was incubated with the wild type or mutant pre-miR-198 transcripts in 20 μl of reaction buffer containing 30 mM Tris HCl, pH 7.4, 5 mM MgCl₂, 50 mM KCl, 0.5 mM DTT, 40 u/ml of RNaseOUT, 250 μg/ml of yeast tRNA and 10% glycerol. After 30 min at room temperature, reaction products were resolved through 6% native polyacrylamide gel electrophoresis. Gel was dried and the protein RNA complex and unbound RNA were visualized by phosphorimaging.

KSRP (KHSRP) [2] = molecular target: T1, KSRP (KHSRP); assay: EMSA; binding abrogated; 0.5 uM KSRP; settings: tags: recombinant, Origene; label: 32P-UTP; hairpin
Method: as §1

Row | Binder | binding result (KSRP (KHSRP) [1]) | binding result (KSRP (KHSRP) [2])
1 | B1 | binds | –
2 | B2 | – | no binding
